Patent US20210047402A1 (TENEOBIO, published 2021)
Numbering of substitutions follows the chain as printed.

T1: human CD22 (human, UniProt P20273 20-687, limits assumed)
T1 construct: also called SIGLEC-2; human CD22 protein
T1 sequence (looked up): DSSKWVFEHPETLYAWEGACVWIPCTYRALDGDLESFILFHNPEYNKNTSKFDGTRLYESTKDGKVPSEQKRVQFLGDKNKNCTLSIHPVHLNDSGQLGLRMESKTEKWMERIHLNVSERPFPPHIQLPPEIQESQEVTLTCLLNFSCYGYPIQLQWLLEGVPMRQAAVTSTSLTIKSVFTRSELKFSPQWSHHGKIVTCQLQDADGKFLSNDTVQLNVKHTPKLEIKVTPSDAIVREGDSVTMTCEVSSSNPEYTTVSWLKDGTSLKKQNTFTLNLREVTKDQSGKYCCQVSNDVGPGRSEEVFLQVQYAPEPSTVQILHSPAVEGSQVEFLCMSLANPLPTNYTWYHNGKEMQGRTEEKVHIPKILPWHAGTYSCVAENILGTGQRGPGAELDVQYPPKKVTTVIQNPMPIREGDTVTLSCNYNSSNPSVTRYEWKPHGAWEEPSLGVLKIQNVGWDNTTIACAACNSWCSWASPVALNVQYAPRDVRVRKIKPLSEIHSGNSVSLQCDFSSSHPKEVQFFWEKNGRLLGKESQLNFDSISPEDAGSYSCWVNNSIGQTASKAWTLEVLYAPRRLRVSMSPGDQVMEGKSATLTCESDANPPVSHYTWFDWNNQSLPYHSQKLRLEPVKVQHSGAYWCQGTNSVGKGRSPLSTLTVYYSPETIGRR

B1: anti-CD22 heavy chain-only antibody Clone ID 335203 (antibody, V domains shown)
VH: QLQLQESGPGLVKPSETLSLTCTVSGDSISSGDYYWGWIRQPPGKGLEWIGHIYYSGVTYYNPSLKNRVTISVDTSKNQFSLKLSSVTAADTAVYYCTREDSSNWRSRGQGTLVTVSS
notes: Heavy chain-only antibody (UniAb), no light chain
B2: anti-CD22 heavy chain-only antibody Clone ID 335207 (antibody, V domains shown)
VH: B1 VH with N67S, K77R
notes: as for B1
B3: anti-CD22 heavy chain-only antibody Clone ID 335208 (antibody, V domains shown)
VH: B1 VH with D27G, G32S, D33S, H52S, V58A, K77R, K83N
notes: as for B1
B4: anti-CD22 heavy chain-only antibody Clone ID 335210 (antibody, V domains shown)
VH: B1 VH with D27G, V58A, K77R
notes: as for B1
B5: anti-CD22 heavy chain-only antibody Clone ID 335218 (antibody, V domains shown)
VH: B1 VH with V58A, K77R
notes: as for B1
B6: anti-CD22 heavy chain-only antibody Clone ID 335219 (antibody, V domains shown)
VH: B1 VH with D27G, G32S, D33S, H52S
notes: as for B1
B7: anti-CD22 heavy chain-only antibody Clone ID 335220 (antibody, V domains shown)
VH: B1 VH with D27G, G32S, D33S, H52S, V58S
notes: as for B1
B8: anti-CD22 heavy chain-only antibody Clone ID 335224 (antibody, V domains shown)
VH: B1 VH with H52S, S56T, V58S, N67S
notes: as for B1
B9: anti-CD22 heavy chain-only antibody Clone ID 335226 (antibody, V domains shown)
VH: B1 VH with G32S, D33S, H52S, V58S, N67S
notes: as for B1
B10: anti-CD22 heavy chain-only antibody Clone ID 335230 (antibody, V domains shown)
VH: B1 VH with G8D, D27G, G32S, D33S, Y34H, V58A, K77R, K83N
notes: as for B1
B11: anti-CD22 heavy chain-only antibody Clone ID 335232 (antibody, V domains shown)
VH: B1 VH with V58A, K77R, F80S, K83N
notes: as for B1
B12: anti-CD22 heavy chain-only antibody Clone ID 335233 (antibody, V domains shown)
VH: B1 VH with H52S, V58S, N67S
notes: as for B1
B13: anti-CD22 heavy chain-only antibody Clone ID 335234 (antibody, V domains shown)
VH: B1 VH with H52N, V58A
notes: as for B1
B14: anti-CD22 heavy chain-only antibody Clone ID 335236 (antibody, V domains shown)
VH: B1 VH with D27G, G32S, D33S, H52S, V58S, N67S
notes: as for B1
B15: anti-CD22 heavy chain-only antibody Clone ID 335242 (antibody, V domains shown)
VH: B1 VH with D27G, G32S, D33S, V58A, K77R, K83N
notes: as for B1
B16: anti-CD22 heavy chain-only antibody Clone ID 335244 (antibody, V domains shown)
VH: B1 VH with V58A, K77R, K83N, N104S
notes: as for B1
B17: anti-CD22 heavy chain-only antibody Clone ID 335245 (antibody, V domains shown)
VH: B1 VH with V58A, N104S
notes: as for B1
B18: anti-CD22 heavy chain-only antibody Clone ID 335254 (antibody, V domains shown)
VH: B1 VH with N104S
notes: as for B1
B19: anti-CD22 heavy chain-only antibody Clone ID 335260 (antibody, V domains shown)
VH: B1 VH with K77R, K83N, N104S
notes: as for B1
B20: anti-CD22 heavy chain-only antibody Clone ID 335261 (antibody, V domains shown)
VH: B1 VH with V58A, K66E, N104S
notes: as for B1
B21: anti-CD22 heavy chain-only antibody Clone ID 335263 (antibody, V domains shown)
VH: B1 VH with D27G, S30N, S31D, G32N, D33S, Y34H, V58A, K77R, K83N, N104S
notes: as for B1
B22: anti-CD22 heavy chain-only antibody Clone ID 335266 (antibody, V domains shown)
VH: B1 VH with K13R, D27G, G32S, D33S, H52S, V58S, N67S, N104S
notes: as for B1
B23: anti-CD22 heavy chain-only antibody Clone ID 335271 (antibody, V domains shown)
VH: B1 VH with Q41H, V58A, N104S
notes: as for B1
B24: anti-CD22 heavy chain-only antibody Clone ID 335273 (antibody, V domains shown)
VH: B1 VH with D27G, G32S, D33S, H52S, V58S, N67S, N104S
notes: as for B1
B25: anti-CD22 heavy chain-only antibody Clone ID 335274 (antibody, V domains shown)
VH: B1 VH with D27G, G32S, D33S, H52S, V58S, N67S, K77R, K83N, N104S
notes: as for B1
B26: anti-CD22 heavy chain-only antibody Clone ID 335283 (antibody, V domains shown)
VH: B1 VH with D27G, G32S, D33S, H52S, V58A, N104S
notes: as for B1
B27: anti-CD22 heavy chain-only antibody Clone ID 335285 (antibody, V domains shown)
VH: B1 VH with D27G, G32S, D33S, H52S, N104S
notes: as for B1
B28: anti-CD22 heavy chain-only antibody Clone ID 335293 (antibody, V domains shown)
VH: B1 VH with V58A, K77R, N104S
notes: as for B1
B29: anti-CD22 heavy chain-only antibody Clone ID 335295 (antibody, V domains shown)
VH: B1 VH with D27G, G32S, D33S, H52S, V58A, K77R, K83N, N104S
notes: as for B1
B30: anti-CD22 heavy chain-only antibody Clone ID 335297 (antibody, V domains shown)
VH: B1 VH with D27G, G32S, D33S, V58A, K77R, K83N, N104S
notes: as for B1
B31: anti-CD22 heavy chain-only antibody Clone ID 335301 (antibody, V domains shown)
VH: B1 VH with H52N, V58A, N104S
notes: as for B1
B32: anti-CD22 heavy chain-only antibody Clone ID 335307 (antibody, V domains shown)
VH: B1 VH with H52S, V58S, N67S, N104S
notes: as for B1
B33: anti-CD22 heavy chain-only antibody Clone ID 335316 (antibody, V domains shown)
VH: B1 VH with D27G, G32S, D33S, V58A, N104S
notes: as for B1
B34: anti-CD22 heavy chain-only antibody Clone ID 335323 (antibody, V domains shown)
VH: B1 VH with D33G, H52S, V58S, N104S
notes: as for B1
B35: anti-CD22 heavy chain-only antibody Clone ID 335333 (antibody, V domains shown)
VH: B1 VH with D27G, G32S, D33S, H52S, V58S, N67S, T98A, N104S
notes: as for B1
B36: anti-CD22 heavy chain-only antibody Clone ID 335311 (antibody, V domains shown)
VH: QLQLQESGPGLVKPSETLSLTCAVYGGSFSGYYWGWIRQPPGKGLEWIGHIYYSGATYYNPSLKNRVTISVDTSRNQFSLNLSSVTAADTAVYYCTREDSSSWRSRGQGTLVTVSS
notes: as for B1
B37: anti-CD22 heavy chain-only antibody Clone ID 335179 (antibody, V domains shown)
VH: QLQLQESGPGLVKPSETLSLTCTVSGGSISSSSYYWGWFRHPPGKGLDWIGSIHYSGSTYYNPSLKSRVTISVDTSRNQFSLNLSSVTAADTAVYYCTRDDSSNWRSRGQGTLVTVSS
notes: as for B1

Target: T1, human CD22
Assay: ELISA protein and cell-binding assays

Binding result, binds:
B1
B2
B3
B4
B5
B6
B7
B8
B9
B10
B11
B12
B13
B14
B15
B16
B17
B18
B19
B20
B21
B22
B23
B24
B25
B26
B27
B28
B29
B30
B31
B32
B33
B34
B35
B36
B37
